Measured values published in ChEMBL document CHEMBL2074458, “Fluorescence-based assay for the interaction of small molecules with the human renal organic anion transporter 1” (Anal Biochem, 2000).

Substrate: O=C(O)c1ccc(C(=O)O)c(-c2c3ccc(=O)cc-3oc3cc(O)ccc23)c1
Experiment: TP_TRANSPORTER: uptake in OAT1-expressing CHO cells
Type: functional, cell-based

B1: Solute carrier family 22 member 6 (Homo sapiens) (protein)
chain: MAFNDLLQQVGGVGRFQQIQVTLVVLPLLLMASHNTLQNFTAAIPTHHCRPPADANLSKNGGLEVWLPRDRQGQPESCLRFTSPQWGLPFLNGTEANGTGATEPCTDGWIYDNSTFPSTIVTEWDLVCSHRALRQLAQSLYMVGVLLGAMVFGYLADRLGRRKVLILNYLQTAVSGTCAAFAPNFPIYCAFRLLSGMALAGISLNCMTLNVEWMPIHTRACVGTLIGYVYSLGQFLLAGVAYAVPHWRHLQLLVSAPFFAFFIYSWFFIESARWHSSSGRLDLTLRALQRVARINGKREEGAKLSMEVLRASLQKELTMGKGQASAMELLRCPTLRHLFLCLSMLWFATSFAYYGLVMDLQGFGVSIYLIQVIFGAVDLPAKLVGFLVINSLGRRPAQMAALLLAGICILLNGVIPQDQSIVRTSLAVLGKGCLAASFNCIFLYTGELYPTMIRQTGMGMGSTMARVGSIVSPLVSMTAELYPSMPLFIYGAVPVAASAVTVLLPETLGQPLPDTVQDLESRWAPTQKEAGIYPRKGKQTRQQQEHQKYMVPLQASAQEKNGL
  Km: 3.95 µM
